Assay results from PMC6617973, “RAF dimers control vascular permeability and cytoskeletal rearrangements at endothelial cell‐cell junctions” (The Febs Journal, 2019).

Molecular target: T1, RAF1 (endogenous, pMECs) (mouse (endogenous in pMECs), UniProt Q99N57 1-648)
T1 construct: RAF1 kinase, endogenous in primary mouse endothelial cells; source: endogenous, pMEC lysate
Assay: co-IP; RAF1 immunoprecipitates from lysates of F/F and BRAFΔ/Δ pMEC monolayers; Protein G Sepharose with antibody, 4 °C overnight; 25 mM HEPES, 150 mM NaCl, 1 mM EGTA, 0.5% NP-40, 10% glycerol; immunoblot
Settings: partners not purified

B1: RHO‐dependent kinase α (enzyme, mouse (endogenous in pMECs), UniProt P70336 1-1388, looked up)
chain: MSRPPPTGKMPGAPEAAPGDGAGAGRQRKLEALIRDPRSPINVESLLDGLNSLVLDLDFPALRKNKNIDNFLNRYEKIVKKIRGLQMKAEDYDVVKVIGRGAFGEVQLVRHKASQKVYAMKLLSKFEMIKRSDSAFFWEERDIMAFANSPWVVQLFCAFQDDRYLYMVMEYMPGGDLVNLMSNYDVPEKWAKFYTAEVVLALDAIHSMGLIHRDVKPDNMLLDKHGHLKLADFGTCMKMDETGMVHCDTAVGTPDYISPEVLKSQGGDGYYGRECDWWSVGVFLFEMLVGDTPFYADSLVGTYSKIMDHKNSLCFPEDTEISKHAKNLICAFLTDREVRLGRNGVEEIKQHPFFKNDQWNWDNIRETAAPVVPELSSDIDSSNFDDIEDDKGDVETFPIPKAFVGNQLPFIGFTYFRENLLLSDSPPCRENDAIQTRKSEESQEIQKKLYALEEHLSSEVQAKEELEQKCKSINTRLEKTAKELEEEITLRKSVESTLRQLEREKALLQHKNAEYQRKADHEADKKRNLENDVNSLKDQLEDLKKRNQSSQISTEKVNQLQKQLDEANALLRTESDTAARLRKTQAESSKQIQQLESNNRDLQDKNCLLETAKLKLEKEFINLQSALESERRDRTHGSEIINDLQGRISGLEEDLKTGKALLAKVELEKRQLQEKLTDLEKEKSNMEIDMTYQLKVIQQSLEQEEAEHKTTKARLADKNKIYESIEEAKSEAMKEMEKKLLEERSLKQKVENLLLEAEKRCSILDCDLKQSQQKLNELLKQKDVLNEDVRNLTLKIEQETQKRCLMQNDLKMQTQQVNTLKMSEKQIKQENNHLMEMKMNLEKQNTELRKERQDADGQMKELQDQLEAEQYFSTLYKTQVRELKEENEEKTKLCKELQQKKQDLQDERDSLAAQLEITLTKADSEQLARSIAEEQYSDLEKEKIMKELEIKEMMARHKQELTEKDTTIASLEETNRTLTSDVANLANEKEELNNKLKDSQEQLSKLKDEEMSAAAIKAQFEKQLLNERTLKTQAVNKLAEIMNRKEPVKRGSDTDVRRKEKENRKLHMELKSEREKLTQQMIKYQKELNEMQAQIAEESQIRIELQMTLDSKDSDIEQLRSQLQALHIGMDSSSIGSGPGDAEPDDGFPESRLEGWLSLPVRNNTKKFGWVKKYVIVSSKKILFYDSEQDKEQSNPYMVLDIDKLFHVRPVTQTDVYRADAKEIPRIFQILYANEGESKKEPEFPVEPVGEKSNYICHKGHEFIPTLYHFPTNCEACMKPLWHMFKPPPALECRRCHIKCHKDHMDKKEEIIAPCKVYYDISSAKNLLLLANSTEEQQKWVSRLVKKIPKKPPAPDPFARSSPRTSMKIQQNQSIRRPSRQLAPNKPS
notes: ROKalpha (ROCK2), endogenous in primary mouse endothelial cells; also called ROKα; ROK; source: endogenous, pMEC lysate
- fold increase of the co-precipitate in BRAF-deficient against F/F pMECs: 3 fold
